{
  "source": "paper PMC10290953",
  "about": "“A novel ELP1 mutation impairs the function of the Elongator complex and causes a severe neurodevelopmental phenotype” (Journal of Human Genetics, 2023)",
  "key": {"[1]": {"test_system": "ELP1 (wild type);ELP2;ELP3 (Homo sapiens;Homo sapiens;Homo sapiens)", "assay": "MST", "conditions": "none (in vitro transcribed); MST: 14 nM Cy5-tRNA, ELP123 from 1.5 uM in serial dilution, 20 mM HEPES pH 7.5, 100 mM NaCl, 5 mM DTT, 0.05% Tween 20; incubated 30 min at 4 C, measured at …"}, "[2]": {"test_system": "ELP1 K815T;ELP2;ELP3 (Homo sapiens;Homo sapiens;Homo sapiens)", "assay": "MST", "conditions": "curve did not reach plateau; authors state actual affinity is likely lower; none (in vitro transcribed); MST: 14 nM Cy5-tRNA, ELP123 from 1.5 uM in serial dilution, 20 mM HEPES pH 7.5, 100 mM NaCl, 5 mM DTT, 0.05% Tween 20; incubated 30 min at 4 C, measured at …"}, "[3]": {"molecular_target": "the molecule itself", "assay": "SEC; purified ELP1_(715-1332) proteins on a S200 10/300 increase gel filtration column with calibration standards; fractions on 12% SDS-PAGE, Coomassie"}},
  "data": [
    {"molecule": "tRNAGlnUUG", "values": [
      {"measurement": "Kd", "setting": "[1]", "value": 50, "unit": "nM"},
      {"measurement": "Kd", "setting": "[2]", "value": 150, "unit": "nM"}
    ]},
    {"molecule": "human ELP1 N-terminal truncation, residues 715-1332 (ELP1_(715-1332)) (domain or fragment, UniProt O95163 715-1332, looked up, ELP1, Homo sapiens, UniProt O95163, amino acids 715 to 1332; cloned with NcoI and XhoI into pETM11; also called ELP1CT; ELP1 C-terminal construct; source: E. coli BL21 pRARE, purified (NiNTA, S200 gel filtration)) NLEVVHHRALVLAQIRKWLDKLMFKEAFECMRKLRINLNLIYDHNPKVFLGNVETFIKQIDSVNHINLFFTELKEEDVTKTMYPAPVTSSVYLSRDPDGNKIDLVCDAMRAVMESINPHKYCLSILTSHVKKTTPELEIVLQKVHELQGNAPSDPDAVSAEEALKYLLHLVDVNELYDHSLGTYDFDLVLMVAEKSQKDPKEYLPFLNTLKKMETNYQRFTIDKYLKRYEKAIGHLSKCGPEYFPECLNLIKDKNLYNEALKLYSPSSQQYQDISIAYGEHLMQEHMYEPAGLMFARCGAHEKALSAFLTCGNWKQALCVAAQLNFTKDQLVGLGRTLAGKLVEQRKHIDAAMVLEECAQDYEEAVLLLLEGAAWEEALRLVYKYNRLDIIETNVKPSILEAQKNYMAFLDSQTATFSRHKKRLLVVRELKEQAQQAGLDDEVPHGQESDLFSETSSVVSGSEMSGKYSHSNSRISARSSKNRRKAERKKHSLKEGSPLEDLALLEALSEVVQNTENLKDEVYHILKVLFLFEFDEQGRELQKAFEDTLQLMERSLPEIWTLTYQQNSATPVLGPNSTANSIMASYQQQKTSVPVLDAELFIPPKINRRTQWKLSLLD", "values": [
      {"measurement": "binding result", "setting": "[3]", "value": "binds"}
    ]},
    {"molecule": "human ELP1_(715-1332)K815T (domain or fragment, UniProt O95163 715-1332, looked up, ELP1, Homo sapiens, UniProt O95163, amino acids 715 to 1332, with the patient variant p.Lys815Thr; Patient-derived variant (c.2444A>C; p.Lys815Thr); PDB 5CQR is the wild-type parent; also called ELP1K815T C-terminal construct; source: E. coli BL21 pRARE, purified (NiNTA, S200 gel filtration)) NLEVVHHRALVLAQIRKWLDKLMFKEAFECMRKLRINLNLIYDHNPKVFLGNVETFIKQIDSVNHINLFFTELKEEDVTKTMYPAPVTSSVYLSRDPDGNTIDLVCDAMRAVMESINPHKYCLSILTSHVKKTTPELEIVLQKVHELQGNAPSDPDAVSAEEALKYLLHLVDVNELYDHSLGTYDFDLVLMVAEKSQKDPKEYLPFLNTLKKMETNYQRFTIDKYLKRYEKAIGHLSKCGPEYFPECLNLIKDKNLYNEALKLYSPSSQQYQDISIAYGEHLMQEHMYEPAGLMFARCGAHEKALSAFLTCGNWKQALCVAAQLNFTKDQLVGLGRTLAGKLVEQRKHIDAAMVLEECAQDYEEAVLLLLEGAAWEEALRLVYKYNRLDIIETNVKPSILEAQKNYMAFLDSQTATFSRHKKRLLVVRELKEQAQQAGLDDEVPHGQESDLFSETSSVVSGSEMSGKYSHSNSRISARSSKNRRKAERKKHSLKEGSPLEDLALLEALSEVVQNTENLKDEVYHILKVLFLFEFDEQGRELQKAFEDTLQLMERSLPEIWTLTYQQNSATPVLGPNSTANSIMASYQQQKTSVPVLDAELFIPPKINRRTQWKLSLLD", "values": [
      {"measurement": "binding result", "setting": "[3]", "value": "binds"}
    ]}
  ]
}
